The DeepSol protein solubility set

Assay: soluble on expression in E. coli; label from the status in PepcDB or PDB records

Row | Sequence | soluble on expression in E. coli
1 | MPLVVFCGLPYSGKSRRAEELRVALAAEGRAVYVVDDAAVLGAEDPAVYGDSAREKALRGALRASVERRLSRHDVVILDSLNYIKGFRYELYCLARAARTPLCLVYCVRPGGPIAGPQVAGANENPGRNVSVSWRPRAEEDGRAQAAGSSVLRELHTADSVVNGSAQADVPKELEREESGAAESPALVTPDSEKSAKHGSGAFYSPELLEALTLRFEAPDSRNRWDRPLFTLVGLEEPLPLAGIRSALFENRAPPPHQSTQSQPLASGSFLHQLDQVTSQVLAGLMEAQKSAVPGDLLTLPGTTEHLRFTRPLTMAELSRLRRQFISYTKMHPNNENLPQLANMFLQYLSQSLH | soluble
2 | MSLINTQRLVDHFLQLIQIDSESGNEKKIAETLAEQLGELGFTVHKLPVPAEVSNGFNLYARLEGTLNDSILFSCHMDTVKPGIGIEPVIEDGIIRSKGNTILGGDDKSGIAAILEAVRVLRDSQQAHKTIEIAFTVHEEGGLKGSEHFDMSKVQAEKAIVLDTGGPIGTIVRAAPGQQKIVALIKGKPAHAGLVPEDGISAIAVAADAITQMKLLRIDEETTANIGIVQGGQATNIVMPELKIVAEARSLNDAKLEAQVQHMIETFERAAEKHGATVEIESTRAYNAFKLEEDNAHIQAIKASFETIGIEPKTKLSGGGSDANNFNAKGLTTVNLSTGMAKVHTTEEYIAIADMVKIAEFVCAYTTA | not soluble
3 | MSESLRNTITKIVVEKIRCKSLMFMPSHVCATFPFNTQNALVVDIGHSECIAVPIIEGVTMLNEFESARSICGRQLERRVREQMEKYGQIAELNGERRAITENDWQDIDACKLIETLSLSLICLDKERAENWTKWEASEEGEKPDIETLCKERLFPNNGKIFVVPPVVFETSTEIFFNENLNPTSFDLSLPKLLHKLVSKCPIDLRKKLFPNILLTGGVSTIPGLMKRLEQEIQVIDEKNNSKIAVIVKFYQFSEIKNTPLFVSWLGASLLGSLRETIERKSLTLEEWKNGKLAADWTDIIVKSR | not soluble
4 | GSHMESGYAQNGDLEDAELDDYSFSCYSQLEVNGSQHSLTCAFEDPDVNTTNLEFEICGALVEVKCLNFRKLQEIYFIETKKFLLIGKSNICVKVGEKSLTCKKIDLTTIVKPEAPFDLSVVYREGANDFVVTFNTSHLQKKYVKVLMHDVAYRQEKDENKWTHVNLSSTKLTLLQRKLQPAAMYEIKVRSIPDHYFKGFWSEWSPSYYFRTPEINNSSGEMD | soluble
5 | MSGQNNVVGVHYKVGRRIGEGSFGVIFEGTNLLNNQQVAIKFEPRRSDAPQLRDEYRTYKLLAGCTGIPNVYYFGQEGLHNVLVIDLLGPSLEDLLDLCGRKFSVKTVAMAAKQMLARVQSIHEKSLVYRDIKPDNFLIGRPNSKNANMIYVVDFGMVKFYRDPVTKQHIPYREKKNLSGTARYMSINTHLGREQSRRDDLEALGHVFMYFLRGSLPWQGLKAATNKQKYERIGEKKQSTPLRELCAGFPEEFYKYMHYARNLAFDATPDYDYLQGLFSKVLERLNTTEDENFDWNLL | soluble
6 | MERTVKLRVKVDYSTYSALKEVEKEYREVLEDAINYGLSNKTTSFTRIKAGVYKTEREKHKDLPSHYIYTACEDASERLDSFEKLKKRGRSYTEKPSVRRVTIHLDDHLWKFNLDTISISTKRSRILISPTFPKIFWRYYNTEWRIASEARFRLMKGNVVEFYVIFKRDEPKPYEPKAFIPVDLNENSVSVLINSKPLLLETNTKKITLGYEYRRKAITTGKSTKDREVRRKLKRLRERNKKVDIRRKLAKLIVKEAFESRSAIVLEDLPRRTPEHMIKDVKDKQLRLRIYRSAFSSMKNAIIEKAREFGVPVVLVNPSYTSTVCPIHGANIVYQLDGGDAPRVGVCEKGKEKWHRDVVALYNLARRAGDVSPVPLGSKESHDPPTLSGWLRAKSLHSIMNEHKMIEMKVLEHHHHHH | soluble
7 | MKVVGLDLGGTKIAAGVFDGKRLLSKVVVPTPKEGGERVAEALAEAAERAEREAGVRGEAIGLGTPGPLDFRRGVIRFAPNIPGVQDFPIRRILEEATGRPVFLENDANAAALAEHHLGAAQGEESSLYLTVSTGIGGGVVLGGRVLRGERGQGGELGHLTLLPGGPACGCGLEGCLEALAAGRALERDATYAFQRPVDTRELFRLFQAGDPKAERLVLQAARYVGIGLASLVKAFDPGVVVLGGGVALNAPEGYWEALLEAYRRYLQGWEAPPLRRARLGAEAGLLGAALTAYLEVKDGSG | soluble
8 | MATPVPLVFNAPKRGMPPTHFADLNDEARIEALKELGLPKFRLNQIARHYYGRLEADPLTMTDLPEGARQEVKDALFPTLMSPLRVVETDDDTTQKTLWKLHDGTLLESVLMRYSDRSTLCISSQAGCGMACPFCATGQGGLDRNLSIGEIVDQVRNAAATMQSEGGRLSNIVFMGMGEPLANYKRVVSAVRQITQPSPAGFGISQRSVTVSTVGLAPAIRKLADEEMSVTLAVSLHTPDDELRDTLVPVNNRWPVAEVLDAARYYADKSGRRVSIEYALIRDVNDQDWRADMLGEKLHKALGSRVHVNLIPLNPTPGSKWDAAPKARQDEFVRRVIAKGVPCTVRDTKGQEIAAACGQLAAEESA | not soluble
9 | MGSDKIHHHHHHMEEGSAGMGMSQNNSTLVAPQPKGIIDPATGKPVGSNDAYFTEINDELADKGFLVTSTDELITWARTGSLMWMQFGLACCAVEGLMQASGPRYDMERFGVAPRASPRQSDVMIVAGTLTNKMAPALRKVYDQMPEPRYVISMGSCANGGGYYHYSYAVVRGCDRVVPVDIYVPGCPPTAEALLYGVLLLQKKIRRTGTIER | not soluble
10 | MGSDKIHHHHHHMQAFDELLTVEQLSFSYEEDEKPVFQDISFELQKGECVLLLGPSGCGKSSLALCLNGLYPEACDGIQSGHVFLFQKPVTDAETSETITQHAGVVFQDPDQQFCMLTVEDEIAFGLENLQIPKEEMTEKINAVLGKLRITHLKEKMISTLSGGQKQKVALACILAMEPELIILDEPTSLLDPFSAREFVHLMKDLQREKGFSLLVIEHQLDEWAPWIERTIVLDKSGKKALDGLTKNLFQHEAETLKKLGIAIPKVCHLQEKLSMPFTLSKEMLFKEPIPAGHVKKKKAPSGESVLEVSSLSFARGQQAIFKDISFSLREGSLTALVGPNGTGKSTLLSVLASLMKPQSGKILLYDQPLQKYKEKELRKRMGFVFQNPEHQFVTDTVYDELLFGQKANAETEKKAQHLLQRFGLAHLADHHPFAISQGQKRRLSVATMLMHDVKVLLLDEPTFGQDARTAAECMEMIQRIKAEGTAVLMITQGYGASLFVC | not soluble
11 | GPGSMLEEVLKCYEEMKDPAAHQLAEAALPKLMEALGEESENSVMEVMLRCIGRCVSVHPAIMSPTNTALVCDKVMAALEVVVKRRNECLQKKATENDEDELDALEVEDEEVHLTISSMCDLIGTLLAASKEVFAAPFLEKAFPVLGEWLQASTDDFYMTRAAGILSDFVTHAPQSIVPSLPQICASSLTIASSSSDDGLLQSDFYLMNVIVQLLGSHATTNMGVDGGEYAVHVQQVAEKYFSSNLVNQEEYTHCTCNVISLYVSLLNFYGTTVLQQAATSMLTVVGKALPAKDDEIEARRIHDVVLGWVTNNHPVLQALPGSTAGFLTCVKAASPNCLSEQAKQYLASM | soluble
12 | MCGRFVLKATPEEIADYLDLIGLEDFPARFNIAPTQPILVVMEGEQQERGSNLPNRRAVLVRWGFMPGWVKDPKDFPLLINARSETAIGKASFRAAMRHRRVLIPATGFYEWRRPPKEEGGKAQPYFIRPKNGGIVAFAGLMETWSSADGSEVDTGAILTTAANAAIGRIHDRMPVVIAPEDFSRWLDCKTQEPREVADLMRPVQGDFFEMIPVSDKVNKVANVGADLIDPVPESAPLAKVRPAKDDGQMSLFLEHHHHHH | not soluble
13 | MMAKKPPKPAPRRIFQERLKITALPLYFEGFLLIKRSGYREYEHYWTELRGTTLFFYTDKKSIIYVDKLDIVDLTCLTEQNSTEKNCAKFTLVLPKEEVQLKTENTESGEEWRGFILTVTELSVPQNVSLLPGQVIKLHEVLEREKKRRIETEQSTSVEKEKEPTEDYVDVLNPMPACFYTVSRKEATEMLQKNPSLGNMILRPGSDSRNYSITIRQEIDIPRIKHYKVMSVGQNYTIELEKPVTLPNLFSVIDYFVKETRGNLRPFICSTDENTGQEPSMEGRSEKLKKNPHIA | soluble
14 | MAPAKSPRAWQRMLSGRRLDLLDPSPLDVEIADIAHGLARVARWNGQTRGDHAFTVAQHCLIVETIFCRMCPGATPDEMQMALLHDAPEYVIGDMISPFKSVVGGGYKTVEKRLEAAVHLRFGLPPHASRELKDRIKKADTVAAFFEATELAGFSTAEAQKFFGLPRGITRDMFDIIPLPSTEAQRLFIARFEAIETLRVTRTGGAV | soluble
